Experiments:
[1] = biological target: cce_0566 from Cyanothece sp. ATCC 51142 (DUF269 family protein) (Cyanothece sp. ATCC 51142); assay: SEC
[2] = biological target: cce_0566 from Cyanothece sp. ATCC 51142 (DUF269 family protein) (Cyanothece sp. ATCC 51142); assay: crystal structure
[3] = biological target: cce_0566 from Cyanothece sp. ATCC 51142 (DUF269 family protein) (Cyanothece sp. ATCC 51142); assay: NMR 15N relaxation

Measured: stoichiometry N

cce_0566 from Cyanothece sp. ATCC 51142 (DUF269 family protein) (natural protein)
2: [1] | [2] | [3]

From article PMC3641832
